The results in this text go back to US20200071424A1 (SHIONOGI, published 2020).

Numbering of substitutions follows the chain as printed.

For experiment [1], the target named is T1, cynomolgus monkey EL (cynomolgus monkey).
T1 construct: Heparin extract; also called cynomolgus EL; Cynomolgus EL
Briefly: Biacore; EL captured by anti-C2-tag Ab; bivalent fit. As for the experimental part: (§1) The binding affinities of anti-EL antibodies were measured using Biacore. […] Then, anti-EL antibodies were added and the binding affinities were calculated by bivalent fitting of BIAevaluation software.
(SPR reads the build-up and loss of mass on a sensor chip optically.)

Experiment [2] deals with T2, human [1-305]-mouse chimeric EL (human; mouse, UniProt Q9WVG5 306-500).
T2 construct: Heparin extract, captured or detected by an anti-C2-tag antibody; also called human-mouse chimeric EL
T2 sequence: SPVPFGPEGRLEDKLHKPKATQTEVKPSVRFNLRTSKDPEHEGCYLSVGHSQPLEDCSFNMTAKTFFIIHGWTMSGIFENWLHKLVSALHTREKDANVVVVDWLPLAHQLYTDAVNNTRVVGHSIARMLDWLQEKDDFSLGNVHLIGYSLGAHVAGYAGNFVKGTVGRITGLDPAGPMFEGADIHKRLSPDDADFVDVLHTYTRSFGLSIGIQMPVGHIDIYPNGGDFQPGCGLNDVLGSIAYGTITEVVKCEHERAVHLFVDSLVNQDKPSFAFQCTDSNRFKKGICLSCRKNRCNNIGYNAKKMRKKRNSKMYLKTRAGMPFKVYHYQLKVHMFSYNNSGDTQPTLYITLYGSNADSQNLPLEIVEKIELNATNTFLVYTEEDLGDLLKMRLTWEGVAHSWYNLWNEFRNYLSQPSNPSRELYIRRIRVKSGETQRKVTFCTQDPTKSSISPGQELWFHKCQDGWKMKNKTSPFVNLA
The experiment is described as above. Here is the method: as §1

The target in experiment [3] is T3, baboon EL (baboon).
T3 construct: Heparin extract
The description is as above. As for the experimental part: as §1

In experiment [4] the target is T1, cynomolgus monkey EL. Briefly: cell-based or functional assay.
Experiment [5] has as its target T3, baboon EL. The experiment is described as follows: cell-based or functional assay.
In experiment [6] the target is human-mouse chimeric EL (construct not specified). The experiment is described as follows: cell-based or functional assay.
The target of experiment [7] is T1, cynomolgus monkey EL. Briefly: ELISA: antibody captured on anti-mouse IgG-Fc plate, EL heparin extract added, detection with biotin anti-C2-tag antibody and HRP-streptavidin, A450. As for the experimental part: (§2) Assay buffer containing 15 μl of anti-EL antibody was added to anti-mouse IgG-Fc antibody-immobilized microtiter plate, and incubated for 2 hr. […] After washing the wells three times with 90 μL of washing buffer, 15 μl of assay buffer containing biotin-labeled anti-C2-tag antibody and HRP-labeled Streptavidin were added to the wells and incubated at room temperature for 1 hr. After washing the wells three times with 90 μL of washing buffer, 15 μL of TMB+—Substrate—Chromogen (DAKO) was added and incubated at room temperature for 30 min and then 15 μL of 0.05 M H2SO₄ was added and absorbance at 450 nm was measured (FIG. 3A to 3K).
On the technique in general: In an ELISA, binding on a coated surface is turned into a signal by an enzyme label.

In experiment [8] the target is T4, mouse EL (mouse, UniProt Q9WVG5 21-500).
T4 construct: Heparin extract
T4 sequence (looked up): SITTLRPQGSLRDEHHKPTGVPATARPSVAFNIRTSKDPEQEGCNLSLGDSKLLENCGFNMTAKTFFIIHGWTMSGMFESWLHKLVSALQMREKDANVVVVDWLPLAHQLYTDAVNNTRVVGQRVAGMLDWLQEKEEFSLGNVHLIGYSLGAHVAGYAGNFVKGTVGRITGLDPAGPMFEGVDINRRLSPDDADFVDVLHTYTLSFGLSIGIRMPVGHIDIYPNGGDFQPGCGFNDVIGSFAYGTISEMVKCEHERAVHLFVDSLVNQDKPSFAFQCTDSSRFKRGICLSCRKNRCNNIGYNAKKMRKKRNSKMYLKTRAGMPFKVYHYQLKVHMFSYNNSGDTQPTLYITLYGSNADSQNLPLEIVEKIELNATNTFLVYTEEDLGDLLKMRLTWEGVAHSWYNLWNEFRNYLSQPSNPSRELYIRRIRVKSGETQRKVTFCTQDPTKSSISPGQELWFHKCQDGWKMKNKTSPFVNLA
The experiment is described as above. As for the experimental part:
as §2

Experiment [9] addresses T5, human [1-157]-mouse chimeric EL (human; mouse, UniProt Q9WVG5 158-500).
T5 construct: Heparin extract, detected by an anti-C2-tag antibody
T5 sequence: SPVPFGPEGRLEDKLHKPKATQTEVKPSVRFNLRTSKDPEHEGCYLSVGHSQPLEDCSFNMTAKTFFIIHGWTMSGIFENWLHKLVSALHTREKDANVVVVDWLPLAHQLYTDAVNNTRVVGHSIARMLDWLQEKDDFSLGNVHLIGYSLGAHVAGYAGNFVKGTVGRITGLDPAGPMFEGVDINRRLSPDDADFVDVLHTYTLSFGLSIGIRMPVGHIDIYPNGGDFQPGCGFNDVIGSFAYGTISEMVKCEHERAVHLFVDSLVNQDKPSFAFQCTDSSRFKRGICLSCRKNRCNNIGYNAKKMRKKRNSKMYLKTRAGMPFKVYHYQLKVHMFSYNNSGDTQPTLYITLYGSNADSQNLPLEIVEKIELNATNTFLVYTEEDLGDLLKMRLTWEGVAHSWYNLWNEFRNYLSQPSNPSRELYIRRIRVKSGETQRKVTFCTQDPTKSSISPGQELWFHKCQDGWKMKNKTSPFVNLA
The experiment is described as above. Here is the method:
as §2

Experiment [10] deals with T3, baboon EL. The description is as above. Here is the method: as §2

B1: 14A1 (antibody, mouse IgG1, V domains shown)
VH: QIQLVQSGPELKKPGETVKISCKASGYTFTNYGMNWVKQAPGKGLKWMGWINTYSGVPTYADDFKGRFAFSLETSASTAYLQINNFKNEDTATYFCARFSYYGRHYFDYWGQGTALTASS
VL: DIVLTQSPASLAVSLGQRATISCKASQSVDYDGDSYMNWYQQKPGQPPKLLIYAASNLKSGIPARFSGSGSGTDFTLNIHPVEEEDAATYYCQQTTDDPPWTFGGGTKLEIK
notes: mouse IgG1 from hybridoma
As for B1, the results for the Kd in experiment [1], in experiment [2] and in [3] were 3.9 nM, 0.5 nM and 3.3 nM, respectively. For the same molecule, the koff (usually a measure of how fast the partners let go of each other) in [1] amounted to 0.00081 s⁻¹; in experiment [2], 0.0001 s⁻¹; in [3] it was 0.00062 s⁻¹. The kon (as a rule, a measure of how fast the partners come together) in experiment [1] was found to be 210000 M⁻¹ s⁻¹; in experiment [2] it was 210000 M⁻¹ s⁻¹; in [3], 190000 M⁻¹ s⁻¹. The “Neutralizing activity IC50” value in experiment [4] was determined as 3.1 nM; in [5], 2.7 nM; in [6], 5.8 nM. Further, the EC50 (read off the curve) – broadly, the concentration that produces a half-maximal response – in experiment [7] was roughly 20 ng/mL; in [9], roughly 7 ng/mL. For the same molecule, the binding result in experiment [8] is recorded as “no binding (tested: about 330 ng/mL)”.

B2: 2D5 (antibody, mouse IgG2a, V domains shown)
VH: B1 VH with A61T, Y80F, F86L, A115T, A118V
VL: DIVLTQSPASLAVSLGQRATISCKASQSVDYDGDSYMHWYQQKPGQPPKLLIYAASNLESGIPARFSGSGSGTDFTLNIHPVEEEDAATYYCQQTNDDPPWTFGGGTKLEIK
notes: mouse IgG2a from hybridoma
Turning to B2, the Kd in [1] worked out at 3.8 nM; in experiment [2], 1.1 nM; in experiment [3] it was 2.2 nM. The koff came out at 0.00028 s⁻¹ in experiment [1], 9.3e-05 s⁻¹ in experiment [2] and 0.00017 s⁻¹ in experiment [3]. The results for the kon in experiment [1], in experiment [2] and in experiment [3] were 74000 M⁻¹ s⁻¹, 85000 M⁻¹ s⁻¹ and 77000 M⁻¹ s⁻¹, respectively. Further, the “Neutralizing activity IC50” value in experiment [4] stood at 3 nM; in [5], 2.9 nM; in experiment [6], 2.7 nM. Besides, the concentration giving a half-maximal response (EC50 (read off the curve)) in [7] is roughly 10 ng/mL; in experiment [10], roughly 20 ng/mL; in [9], roughly 8 ng/mL. Besides, in [8], the binding result is reported as “no binding (tested: about 330 ng/mL)”.

B3: 7D4 (antibody, mouse IgG1, V domains shown)
VH: B1 VH with G44D, F86L, A115T, A118V
VL: B1 VL with K49Q, K59G, Q93H, T95S
notes: mouse IgG1 from hybridoma
Consider B3, for which the Kd in experiment [1] was determined as 1.9 nM; in [2], 0.97 nM; in [3], 4.5 nM. Besides, the off-rate constant (koff) was 0.00023 s⁻¹ in [1], 0.00011 s⁻¹ in experiment [2] and 0.00035 s⁻¹ in [3]. Further, the figures for the kon in experiment [1], in [2] and in experiment [3] were 120000 M⁻¹ s⁻¹, 110000 M⁻¹ s⁻¹ and 78000 M⁻¹ s⁻¹, respectively. For the same molecule, the results for the “Neutralizing activity IC50” value in [4], in [5] and in experiment [6] were 2.1 nM, 2.6 nM and 3.7 nM, respectively. Moreover, the “EC50 (read off the curve)” value in experiment [7] was roughly 10 ng/mL; in experiment [10] it was roughly 9 ng/mL; in experiment [9], roughly 6 ng/mL. The binding result in [8] was “no binding (tested: about 330 ng/mL)”.
